Results reported in publication PMC10240976 (2022).

Target: LC3B K65W
Assay: ITC

LQFEIDDEMEPLYNQAKQMRYGDY [LIR[Sp] peptide]
Kd: 22.4 µM
